Test [1] can be described thus: carboxylate reductase enzyme activity assay (N7-acetyl-7-aminoheptanoate to N7-acetyl-7-aminoheptanal), NADPH consumption at 340 nm. As to conditions: purified enzyme enhanced by gene product of sfp; 2 mM N7-acetyl-7-aminoheptanoate, 1 mM ATP, 1 mM NADPH, pH 7.5, room temperature, 20 min; FIG. 10. Type of test: biochemical. The protocol:
The activity of each of the N-terminal His-tagged carboxylate reductases of SEQ ID NOs: 3, 5, and 6 (see Examples 2 and 3, and FIG. 6B, FIGS. 6D-6E) for converting N7-acetyl-7-aminoheptanoate to N7-acetyl-7-aminoheptanal was assayed in triplicate in a buffer composed of a final concentration of 50 mM HEPES buffer (pH=7.5), 2 mM N7-acetyl-7-aminoheptanoate, 10 mM MgCl2, 1 mM ATP, and 1 mM NADPH. The assays were initiated by adding purified carboxylate reductase and phosphopantetheine transferase or the empty vector control to the assay buffer containing the N7-acetyl-7-aminoheptanoate then incubated at room temperature for 20 min. The consumption of NADPH was monitored by absorbance at 340 nm.

Test [2] is described as follows: carboxylate reductase enzyme activity assay (pimelate to pimelate semialdehyde), NADPH consumption at 340 nm. The note with it: purified enzyme enhanced by gene product of sfp; 2 mM pimelate, 1 mM ATP, 1 mM NADPH, pH 7.5, room temperature, 20 min; FIG. 8. Type of test: biochemical. The protocol: A nucleotide sequence encoding a HIS-tag was added to the nucleic acid sequences from Segniliparus rugosus and Segniliparus rotundus that encode the carboxylate reductases of SEQ ID NOs: 4 (EFV11917.1) and 6 (ADG98140.1), respectively (see FIG. 6C and FIG. 6E), such that N-terminal HIS tagged carboxylate reductases could be produced. Each of the modified genes was cloned into a pET Duet expression vector along with a sfp gene encoding a HIS-tagged phosphopantetheine transferase from Bacillus subtilis, both under the T7 promoter. Each expression vector was transformed into a BL21[DE3] E. coli host and the resulting recombinant E. coli strains were cultivated at 37° C. in a 250 mL shake flask culture containing 50 mL LB media and antibiotic selection pressure, with shaking at 230 rpm. Each culture was induced overnight at 37° C. using an auto-induction media.
The pellet from each induced shake flask culture was harvested via centrifugation. Each pellet was resuspended and lysed via sonication, and the cell debris was separated from the supernatant via centrifugation. […]
Enzyme activity assays (i.e., from pimelate to pimelate semialdehyde) were performed in triplicate in a buffer composed of a final concentration of 50 mM HEPES buffer (pH=7.5), 2 mM pimelate, 10 mM MgCl2, 1 mM ATP, and 1 mM NADPH. […] The consumption of NADPH was monitored by absorbance at 340 nm. […]

We go through three molecules from US10920254B2, “Methods and materials for producing 5 and 7-carbon monomers” (INVISTA North America S.á.r.l., priority 2015, dated 2021).

B1: SEQ ID NO: 3: Mycobacterium smegmatis carboxylate reductase, N-terminal HIS tagged (protein, listed as Mycobacterium smegmatis)
chain: MTSDVHDATDGVTETALDDEQSTRRIAELYATDPEFAAAAPLPAVVDAAHKPGLRLAEILQTLFTGYGDRPALGYRARELATDEGGRTVTRLLPRFDTLTYAQVWSRVQAVAAALRHNFAQPIYPGDAVATIGFASPDYLTLDLVCAYLGLVSVPLQHNAPVSRLAPILAEVEPRILTVSAEYLDLAVESVRDVNSVSQLVVFDHHPEVDDHRDALARAREQLAGKGIAVTTLDAIADEGAGLPAEPIYTADHDQRLAMILYTSGSTGAPKGAMYTEAMVARLWTMSFITGDPTPVINVNFMPLNHLGGRIPISTAVQNGGTSYFVPESDMSTLFEDLALVRPTELGLVPRVADMLYQHHLATVDRLVTQGADELTAEKQAGAELREQVLGGRVITGFVSTAPLAAEMRAFLDITLGAHIVDGYGLTETGAVTRDGVIVRPPVIDYKLIDVPELGYFSTDKPYPRGELLVRSQTLTPGYYKRPEVTASVFDRDGYYHTGDVMAETAPDHLVYVDRRNNVLKLAQGEFVAVANLEAVFSGAALVRQIFVYGNSERSFLLAVVVPTPEALEQYDPAALKAALADSLQRTARDAELQSYEVPADFIVETEPFSAANGLLSGVGKLLRPNLKDRYGQRLEQMYADIAATQANQLRELRRAAATQPVIDTLTQAAATILGTGSEVASDAHFTDLGGDSLSALTLSNLLSDFFGFEVPVGTIVNPATNLAQLAQHIEAQRTAGDRRPSFTTVHGADATEIRASELTLDKFIDAETLRAAPGLPKVTTEPRTVLLSGANGWLGRFLTLQWLERLAPVGGTLITIVRGRDDAAARARLTQAYDTDPELSRRFAELADRHLRVVAGDIGDPNLGLTPEIWHRLAAEVDLVVHPAALVNHVLPYRQLFGPNVVGTAEVIKLALTERIKPVTYLSTVSVAMGIPDFEEDGDIRTVSPVRPLDGGYANGYGNSKWAGEVLLREAHDLCGLPVATFRSDMILAHPRYRGQVNVPDMFTRLLLSLLITGVAPRSFYIGDGERPRAHYPGLTVDFVAEAVTTLGAQQREGYVSYDVMNPHDDGISLDVFVDWLIRAGHPIDRVDDYDDWVRRFETALTALPEKRRAQTVLPLLHAFRAPQAPLRGAPEPTEVFHAAVRTAKVGPGDIPHLDEALIDKYIRDLREFGLI
modifications: N-terminal His tag
notes: Mycobacterium smegmatis carboxylate reductase, N-terminal HIS tagged
Regarding B1, in test [1], the “acceptance of N7-acetyl-7-aminoheptanoate as substrate (NADPH consumption), confirmed against the empty vector control” value is reported as “accepted N7-acetyl-7-aminoheptanoate as substrate”.

B2: SEQ ID NO: 5: Mycobacterium massiliense carboxylate reductase, N-terminal HIS tagged (protein, listed as Mycobacterium abscessus)
chain: MTNETNPQQEQLSRRIESLRESDPQFRAAQPDPAVAEQVLRPGLHLSEAIAALMTGYAERPALGERARELVIDQDGRTTLRLLPRFDTTTYGELWSRTTSVAAAWHHDATHPVKAGDLVATLGFTSIDYTVLDLAIMILGGVAVPLQTSAPASQWTTILAEAEPNTLAVSIELIGAAMESVRATPSIKQVVVFDYTPEVDDQREAFEAASTQLAGTGIALETLDAVIARGAALPAAPLYAPSAGDDPLALLIYTSGSTGAPKGAMHSENIVRRWWIREDVMAGTENLPMIGLNFMPMSHIMGRGTLTSTLSTGGTGYFAASSDMSTLFEDMELIRPTALALVPRVCDMVFQRFQTEVDRRLASGDTASAEAVAAEVKADIRDNLFGGRVSAVMVGSAPLSEELGEFIESCFELNLTDGYGSTEAGMVFRDGIVQRPPVIDYKLVDVPELGYFSTDKPHPRGELLLKTDGMFLGYYKRPEVTASVFDADGFYMTGDIVAELAHDNIEIIDRRNNVLKLSQGEFVAVATLEAEYANSPVVHQIYVYGSSERSYLLAVVVPTPEAVAAAKGDAAALKTTIADSLQDIAKEIQLQSYEVPRDFIIEPQPFTQGNGLLTGIAKLARPNLKAHYGPRLEQMYAEIAEQQAAELRALHGVDPDKPALETVLKAAQALLGVSSAELAADAHFTDLGGDSLSALSFSDLLRDIFAVEVPVGVIVSAANDLGGVAKFVDEQRHSGGTRPTAETVHGAGHTEIRAADLTLDKFIDEATLHAAPSLPKAAGIPHTVLLTGSNGYLGHYLALEWLERLDKTDGKLIVIVRGKNAEAAYGRLEEAFDTGDTELLAHFRSLADKHLEVLAGDIGDPNLGLDADTWQRLADTVDVIVHPAALVNHVLPYNQLFGPNVVGTAEIIKLAITTKIKPVTYLSTVAVAAYVDPTTFDEESDIRLISAVRPIDDGYANGYGNAKWAGEVLLREAHDLCGLPVAVFRSDMILAHSRYTGQLNVPDQFTRLILSLIATGIAPGSFYQAQTTGERPLAHYDGLPGDFTAEAITTLGTQVPEGSEGFVTYDCVNPHADGISLDNFVDWLIEAGYPIARIDNYTEWFTRFDTAIRGLSEKQKQHSLLPLLHAFEQPSAAENHGVVPAKRFQHAVQAAGIGPVGQDGTTDIPHLSRRLIVKYAKDLEQLGLL
modifications: N-terminal His tag; Mycobacterium abscessus subsp. bolletii
notes: Mycobacterium massiliense carboxylate reductase, N-terminal HIS tagged
As for B2, the “acceptance of N7-acetyl-7-aminoheptanoate as substrate (NADPH consumption), confirmed against the empty vector control” value in test [1] is on record as “accepted N7-acetyl-7-aminoheptanoate as substrate”.

B3: SEQ ID NO: 4: Segniliparus rugosus carboxylate reductase, N-terminal HIS tagged (protein, listed as Segniliparus rugosus)
chain: MGDGEERAKRFFQRIGELSATDPQFAAAAPDPAVVEAVSDPSLSFTRYLDTLMRGYAERPALAHRVGAGYETISYGELWARVGAIAAAWQADGLAPGDFVATVGFTSPDYVAVDLAAARSGLVSVPLQAGASLAQLVGILEETEPKVLAASASSLEGAVACALAAPSVQRLVVFDLRGPDASESAADERRGALADAEEQLARAGRAVVVETLADLAARGEALPEAPLFEPAEGEDPLALLIYTSGSTGAPKGAMYSQRLVSQLWGRTPVVPGMPNISLHYMPLSHSYGRAVLAGALSAGGTAHFTANSDLSTLFEDIALARPTFLALVPRVCEMLFQESQRGQDVAELRERVLGGRLLVAVCGSAPLSPEMRAFMEEVLGFPLLDGYGSTEALGVMRNGIIQRPPVIDYKLVDVPELGYRTTDKPYPRGELCIRSTSLISGYYKRPEITAEVFDAQGYYKTGDVMAEIAPDHLVYVDRSKNVLKLSQGEFVAVAKLEAAYGTSPYVKQIFVYGNSERSFLLAVVVPNAEVLGARDQEEAKPLIAASLQKIAKEAGLQSYEVPRDFLIETEPFTTQNGLLSEVGKLLRPKLKARYGEALEARYDEIAHGQADELRALRDGAGQRPVVETVVRAAVAISGSEGAEVGPEANFADLGGDSLSALSLANLLHDVFEVEVPVRIIIGPTASLAGIAKHIEAERAGASAPTAASVHGAGATRIRASELTLEKFLPEDLLAAAKGLPAADQVRTVLLTGANGWLGRFLALEQLERLARSGQDGGKLICLVRGKDAAAARRRIEETLGTDPALAARFAELAEGRLEVVPGDVGEPKFGLDDAAWDRLAEEVDVIVHPAALVNHVLPYHQLFGPNVVGTAEIIRLAITAKRKPVTYLSTVAVAAGVEPSSFEEDGDIRAVVPERPLGDGYANGYGNSKWAGEVLLREAHELVGLPVAVFRSDMILAHTRYTGQLNVPDQFTRLVLSLLATGIAPKSFYQQGAAGERQRAHYDGIPVDFTAEAITTLGAEPSWFDGGAGFRSFDVFNPHHDGVGLDEFVDWLIEAGHPISRIDDHKEWFARFETAVRGLPEAQRQHSLLPLLRAYSFPHPPVDGSVYPTGKFQGAVKAAQVGSDHDVPHLGKALIVKYADDLKALGLL
modifications: N-terminal His tag
notes: Segniliparus rugosus carboxylate reductase, N-terminal HIS tagged
Regarding B3, the “acceptance of pimelate as substrate (NADPH consumption), confirmed against the empty vector control” value in test [2] is listed as “accepted pimelate as substrate”.
